Laboratory results reported in patent CN113754772A (SUNSHINE GUOJIAN PHARMACEUTICAL SHANGHAI CO LTD, dated 2021).

B1: anti-PDL1×KDR BsAb3 (bispecific antibody, human IgG1, lambda)
heavy: not shown
light: VLTQPPSVSGAPGQRVTISCTGSHSNFGAGTDVHWYQHLPGTAPKLLIHGDSNRPSGVPDRFSGSKSGTSASLAITGLQAEDEADYYCQSYDYGLRGWVFGGGTKLTVLGQPKAAPSVTLFPPSSEELQANKATLVCLISDFYPGAVTVAWKADSSPVKAGVETTTPSKQSNNKYAASSYLSLTPEQWKSHRSYSCQVTHEGSTVEKTVAPTECS
notes: also called 抗PDL1×KDR双抗
B2: 抗PD-L1单抗 (anti-human PD-L1 monoclonal antibody M8) (antibody, V domains shown)
VH: QVQLQQSGGGLVKPSQSLSLTCTVSGFSLTSYGVHWVRQPPGKGLEWIGLIWSGGGTDYNPSLKSRLTISRDTSKNQVSFKISSLTAADTAVYYCARQLGLRAMDYWGQGTSVTVSS
VL: EIVLTQSPDFLSVTPKEKVTITCRASQSIGTTIHWYQQKPDQSPKLLIKYASQSFSGVPSRFSGSGSGTDFTLTINSVEAEDAATYYCQQSNSWPLTFGAGTKLEIK
notes: also called 抗人PD-L1单抗M8; anti-PDL1 mAb
B3: anti-PDL1×KDR BsAb2 (bispecific antibody)
heavy (part 1 of 2): B2 VH
heavy (part 2 of 2): GGGGSGGGGSGGGGSEVQLVESGGGLVKPGGSLRLSCAASGFTFSSYSMNWVRQAPGKGLEWVSSISSSSSYIYYADSVKGRFTISRDNAKNSLYLQMNSLRAEDTAVYYCARVTDAFDIWGQGTLVTVSSGGGGSGGGGSGGGGSGGGGSVLTQPPSVSGAPGQRVTISCTGSHSNFGAGTDVHWYQHLPGTAPKLLIHGDSNRPSGVPDRFSGSKSGTSASLAITGLQAEDEADYYCQSYDYGLRGWVFGGGTKLTVL
light: EIVLTQSPDFLSVTPKEKVTITCRASQSIGTTIHWYQQKPDQSPKLLIKYASQSFSGVPSRFSGSGSGTDFTLTINSVEAEDAATYYCQQSNSWPLTFGAGTKLEIKRTVAAPSVFIFPPSDEQLKSGTASVVCLLNNFYPREAKVQWKVDNALQSGNSQESVTEQDSKDSTYSLSSTLTLSKADYEKHKVYACEVTHQGLSSPVTKSFNRGEC
notes: also called 抗PDL1×KDR双抗; not shown: CH1-CH2-CH3 heavy chain constant region
B4: anti-PDL1×KDR BsAb1 (bispecific antibody)
heavy (part 1 of 2): B2 VH
heavy (part 2 of 2): GGGGSGGGGSGGGGSVLTQPPSVSGAPGQRVTISCTGSHSNFGAGTDVHWYQHLPGTAPKLLIHGDSNRPSGVPDRFSGSKSGTSASLAITGLQAEDEADYYCQSYDYGLRGWVFGGGTKLTVLGGGGSGGGGSGGGGSGGGGSEVQLVESGGGLVKPGGSLRLSCAASGFTFSSYSMNWVRQAPGKGLEWVSSISSSSSYIYYADSVKGRFTISRDNAKNSLYLQMNSLRAEDTAVYYCARVTDAFDIWGQGTLVTVSS
light: B3 light
notes: as for B3
B5: 抗KDR单抗 (anti-human KDR monoclonal antibody) (antibody, V domains shown)
VH: EVQLVESGGGLVKPGGSLRLSCAASGFTFSSYSMNWVRQAPGKGLEWVSSISSSSSYIYYADSVKGRFTISRDNAKNSLYLQMNSLRAEDTAVYYCARVTDAFDIWGQGTLVTVSS
VL: VLTQPPSVSGAPGQRVTISCTGSHSNFGAGTDVHWYQHLPGTAPKLLIHGDSNRPSGVPDRFSGSKSGTSASLAITGLQAEDEADYYCQSYDYGLRGWVFGGGTKLTVL
notes: Whole monoclonal antibody; CDRs from clone 3A10 of Dan Lu et al. 2003, frameworks mutated in house; also called 抗人KDR单抗; anti-KDR mAb

How the values were obtained:
[1] = molecular target: T1, KDR-ECD-His蛋白 (human, UniProt P35968 20-764); assay: ELISA, KDR-ECD-His coated, HRP-anti-Fab
T1 construct: extracellular domain; Made in HEK-293E cells with an added N-terminal signal peptide (not part of the mature protein); also called KDR抗原
T1 sequence (P35968 other isoform, or with tags, fused parts or gaps): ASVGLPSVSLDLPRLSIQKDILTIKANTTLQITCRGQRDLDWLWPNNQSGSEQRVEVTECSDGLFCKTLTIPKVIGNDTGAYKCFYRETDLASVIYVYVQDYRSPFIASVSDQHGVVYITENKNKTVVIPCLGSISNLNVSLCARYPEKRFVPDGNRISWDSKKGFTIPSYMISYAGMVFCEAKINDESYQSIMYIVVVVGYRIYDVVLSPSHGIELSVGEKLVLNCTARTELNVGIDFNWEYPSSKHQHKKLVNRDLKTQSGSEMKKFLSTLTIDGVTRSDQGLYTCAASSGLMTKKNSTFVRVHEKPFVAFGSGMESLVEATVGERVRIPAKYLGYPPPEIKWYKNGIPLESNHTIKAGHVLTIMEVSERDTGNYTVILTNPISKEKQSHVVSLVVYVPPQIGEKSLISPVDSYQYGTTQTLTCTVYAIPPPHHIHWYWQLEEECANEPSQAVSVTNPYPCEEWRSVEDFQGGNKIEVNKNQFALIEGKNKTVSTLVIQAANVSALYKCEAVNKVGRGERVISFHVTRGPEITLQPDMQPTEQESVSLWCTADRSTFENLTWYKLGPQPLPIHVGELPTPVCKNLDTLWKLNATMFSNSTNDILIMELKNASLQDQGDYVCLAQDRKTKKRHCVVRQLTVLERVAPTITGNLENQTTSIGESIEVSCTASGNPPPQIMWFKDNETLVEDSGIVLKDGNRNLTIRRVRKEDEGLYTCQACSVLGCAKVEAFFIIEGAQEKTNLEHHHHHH

[2] = molecular target: T2, PD-L1 on N87-PDL1 cells (UniProt Q9NZQ7 19-290, limits assumed); assay: flow cytometry on N87-PDL1 cells, FITC goat anti-human Fc
T2 construct: whole, on cells; also called N87-PDL1细胞
T2 sequence (Q9NZQ7 19-290 limits assumed): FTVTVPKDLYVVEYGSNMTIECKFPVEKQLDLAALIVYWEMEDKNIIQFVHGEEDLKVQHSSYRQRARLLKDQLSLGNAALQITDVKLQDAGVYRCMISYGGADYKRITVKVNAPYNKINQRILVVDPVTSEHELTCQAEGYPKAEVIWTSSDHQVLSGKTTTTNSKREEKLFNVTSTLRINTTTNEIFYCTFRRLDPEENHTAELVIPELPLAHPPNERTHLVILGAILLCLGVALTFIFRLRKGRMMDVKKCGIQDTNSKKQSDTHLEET

[3] = molecular target: T3, PDL1-ECD-hFc蛋白 (human, UniProt Q9NZQ7 19-238); assay: bridging ELISA: PDL1-ECD-hFc coated, antibody titrated, then 1 μg/ml KDR-ECD-His, HRP-anti-His (binding of both antigens at once)
T3 construct: extracellular domain; PDL1-ECD-His with its C-terminal tag exchanged for hFc; not shown: hFc tag in place of the His tag
T3 sequence (Q9NZQ7 19-238): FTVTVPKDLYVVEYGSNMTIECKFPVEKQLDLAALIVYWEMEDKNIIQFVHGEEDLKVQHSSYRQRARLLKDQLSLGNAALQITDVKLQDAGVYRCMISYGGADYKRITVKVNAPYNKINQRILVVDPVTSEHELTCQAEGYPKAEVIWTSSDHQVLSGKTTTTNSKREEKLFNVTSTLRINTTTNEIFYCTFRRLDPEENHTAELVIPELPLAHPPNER

[4] = molecular target: PD-L1 on PD-L1 aAPC/CHO-K1 cells (UniProt Q9NZQ7 19-290, limits assumed); assay: cell-based or functional assay
PD-L1 on PD-L1 aAPC/CHO-K1 cells, sequence (Q9NZQ7 19-290 limits assumed): as the sequence (Q9NZQ7 19-290 limits assumed) above

[5] = molecular target: KDR on KDR/NFAT-RE HEK293 cells (UniProt P35968 20-1356); assay: cell-based or functional assay
KDR on KDR/NFAT-RE HEK293 cells, sequence (P35968 20-1356): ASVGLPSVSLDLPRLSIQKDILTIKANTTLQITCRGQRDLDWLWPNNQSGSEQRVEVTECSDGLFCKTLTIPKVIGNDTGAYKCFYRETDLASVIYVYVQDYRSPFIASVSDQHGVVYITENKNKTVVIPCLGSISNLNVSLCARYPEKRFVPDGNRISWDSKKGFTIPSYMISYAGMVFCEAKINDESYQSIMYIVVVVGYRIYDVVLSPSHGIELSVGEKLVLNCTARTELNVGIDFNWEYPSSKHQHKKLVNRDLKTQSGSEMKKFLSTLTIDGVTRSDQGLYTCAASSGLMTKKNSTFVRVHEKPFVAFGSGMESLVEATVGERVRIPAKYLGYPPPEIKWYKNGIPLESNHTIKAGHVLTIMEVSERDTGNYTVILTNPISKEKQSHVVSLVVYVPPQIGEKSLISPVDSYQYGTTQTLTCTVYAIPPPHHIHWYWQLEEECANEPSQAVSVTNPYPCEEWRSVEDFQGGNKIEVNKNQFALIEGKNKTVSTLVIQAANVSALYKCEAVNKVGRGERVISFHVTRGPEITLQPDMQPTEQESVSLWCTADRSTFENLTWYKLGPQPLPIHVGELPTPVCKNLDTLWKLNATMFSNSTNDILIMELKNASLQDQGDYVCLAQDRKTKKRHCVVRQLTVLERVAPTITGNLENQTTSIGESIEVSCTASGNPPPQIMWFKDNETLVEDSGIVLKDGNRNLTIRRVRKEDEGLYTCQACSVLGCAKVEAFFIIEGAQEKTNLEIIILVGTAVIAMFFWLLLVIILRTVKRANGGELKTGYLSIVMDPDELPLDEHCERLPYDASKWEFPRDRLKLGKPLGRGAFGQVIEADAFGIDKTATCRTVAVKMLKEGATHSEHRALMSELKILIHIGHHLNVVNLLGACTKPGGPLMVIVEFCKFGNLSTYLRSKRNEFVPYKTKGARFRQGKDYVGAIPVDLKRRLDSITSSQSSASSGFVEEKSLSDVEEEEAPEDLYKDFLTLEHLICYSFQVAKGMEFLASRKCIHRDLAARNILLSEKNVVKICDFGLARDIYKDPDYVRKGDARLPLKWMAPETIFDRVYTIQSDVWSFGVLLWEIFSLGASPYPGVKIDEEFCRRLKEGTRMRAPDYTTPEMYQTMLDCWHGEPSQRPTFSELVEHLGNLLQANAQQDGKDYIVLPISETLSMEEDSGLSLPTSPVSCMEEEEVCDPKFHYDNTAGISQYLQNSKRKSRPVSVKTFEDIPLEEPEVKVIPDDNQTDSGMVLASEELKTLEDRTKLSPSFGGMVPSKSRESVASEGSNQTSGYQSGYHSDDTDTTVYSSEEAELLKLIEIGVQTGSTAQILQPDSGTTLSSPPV

[6] = molecular target: T4, PDL1-ECD-His蛋白 (human, UniProt Q9NZQ7 19-238); assay: ELISA, PDL1-ECD-His coated, HRP goat anti-human Fc
T4 construct: extracellular domain; Made in HEK-293E cells with an added N-terminal signal peptide (not part of the mature protein); also called PD-L1抗原
T4 sequence (Q9NZQ7 other isoform, or with tags, fused parts or gaps): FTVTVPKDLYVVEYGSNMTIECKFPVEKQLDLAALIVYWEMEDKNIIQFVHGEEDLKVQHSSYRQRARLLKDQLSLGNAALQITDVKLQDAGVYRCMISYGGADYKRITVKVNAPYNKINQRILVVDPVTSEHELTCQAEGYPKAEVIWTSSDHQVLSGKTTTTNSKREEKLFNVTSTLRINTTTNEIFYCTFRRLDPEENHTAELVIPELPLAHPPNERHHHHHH

[7] = molecular target: T1, KDR-ECD-His蛋白; assay: bridging ELISA: PDL1-ECD-hFc coated, antibody, then KDR-ECD-His, detected with HRP-anti-His
[8] = molecular target: T3, PDL1-ECD-hFc蛋白; assay: as above

Row | Binder | EC50 [1] | EC50 [2] | EC50 [3] | IC50 (luminescence, PD-1/PD-L1 Blockade Bioassay) [4] | IC50 (luminescence, VEGF Bioassay) [5] | EC50 [6] | binding result [7] | binding result [8]
1 | B1 | 0.41 nM | 0.21 nM | 0.2 nM | 0.3 nM | 4.35 nM | 0.15 nM |  | 
2 | B2 |  | 0.13 nM |  | 0.23 nM |  | 0.13 nM | no binding (tested: 12nM) | 
3 | B3 | 0.23 nM | 0.15 nM | 0.14 nM | 0.22 nM | 6.09 nM | 0.14 nM |  | 
4 | B4 | 0.23 nM | 0.15 nM | 0.13 nM | 0.27 nM | 13.5 nM | 0.13 nM |  | 
5 | B5 | 0.26 nM |  |  |  | 3.1 nM |  |  | no binding (tested: 12nM)
